Measurements: ChEMBL document CHEMBL1156111, “Identification of the amino acid-AZT-phosphoramidase by affinity T7 phage display selection” (Bioorg Med Chem Lett, 2009)

Substrate: Cc1cn([C@H]2C[C@H](N=[N+]=[N-])[C@@H](COP(=O)(O)NCc3c[nH]c4ccccc34)O2)c(=O)[nH]c1=O
Experiment: Hydrolysis activity of human HINT1 at pH 7.2 by continuous fluorescence assay

B1: Adenosine 5'-monophosphoramidase HINT1 (Homo sapiens), P49773 (protein)
chain: MADEIAKAQVARPGGDTIFGKIIRKEIPAKIIFEDDRCLAFHDISPQAPTHFLVIPKKHISQISVAEDDDESLLGHLMIVGKKCAADLGLNKGYRMVVNEGSDGGQSVYHVHLHVLGGRQMHWPPG
- Km: 981 µM
